From the supplement of paper PMC11136658

Test system: peptide library, one residue held at a place counted from the Y acceptor
Test: relative phosphorylation of the sub-library (ratio to the mean residue at this position); higher = residue favoured
How it was run: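 In 384-well plates, purified recombinant kinases were incubated for 90 min with 50 μM ATP containing γ-32P-ATP and biotinylated Tyr-centred peptide libraries, each mixture fixing one residue at a single position between −5 and +5. After capture on streptavidin membranes and rinsing, peptides were quantified by phosphorimaging with ImageQuant. Per-position intensities were scaled to the sum of the 18 (Ser/Thr-free library: 16) randomized residues, then multiplied by that number.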

Chain of TNK1, construct: aa106-390, human (Q13470 106-390, looked up): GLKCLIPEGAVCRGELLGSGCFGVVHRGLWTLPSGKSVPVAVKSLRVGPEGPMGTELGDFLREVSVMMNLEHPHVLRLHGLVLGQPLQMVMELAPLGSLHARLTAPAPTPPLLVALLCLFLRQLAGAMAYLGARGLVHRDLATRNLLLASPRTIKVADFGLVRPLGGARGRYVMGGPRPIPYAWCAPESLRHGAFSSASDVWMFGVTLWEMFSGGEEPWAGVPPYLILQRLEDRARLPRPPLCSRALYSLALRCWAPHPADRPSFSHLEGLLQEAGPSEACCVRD
Chain of TXK, construct: aa239-end, human (P42681 239-527, looked up): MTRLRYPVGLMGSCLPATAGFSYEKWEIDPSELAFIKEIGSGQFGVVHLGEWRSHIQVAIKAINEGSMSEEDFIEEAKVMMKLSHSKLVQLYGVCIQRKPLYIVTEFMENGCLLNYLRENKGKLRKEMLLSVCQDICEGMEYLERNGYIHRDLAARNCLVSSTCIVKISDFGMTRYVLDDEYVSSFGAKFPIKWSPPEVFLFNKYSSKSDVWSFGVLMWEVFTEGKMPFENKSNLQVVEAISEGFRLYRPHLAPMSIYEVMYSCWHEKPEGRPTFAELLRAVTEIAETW
Chain of TYK2, construct: aa871-end, human (P29597 871-1187, looked up): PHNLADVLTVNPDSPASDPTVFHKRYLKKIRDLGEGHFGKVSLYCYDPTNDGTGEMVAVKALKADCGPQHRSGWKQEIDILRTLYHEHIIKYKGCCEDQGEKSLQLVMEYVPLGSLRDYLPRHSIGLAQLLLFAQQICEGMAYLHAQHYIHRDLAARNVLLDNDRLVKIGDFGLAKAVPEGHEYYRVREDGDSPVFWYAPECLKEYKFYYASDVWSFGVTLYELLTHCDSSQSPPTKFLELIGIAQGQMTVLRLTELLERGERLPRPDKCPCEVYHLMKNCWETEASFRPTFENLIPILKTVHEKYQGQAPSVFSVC

TNK1, construct: aa106-390, human (from UniProt Q13470)
relative phosphorylation
Details	at +1	at +2	at +3	at +4	at +5	at -1	at -2	at -3	at -4	at -5
A fixed	1.56	0.82	0.743	0.902	0.977	0.86	1.01	0.962	1.07	1.08
D fixed	0.25	0.328	0.335	0.714	0.594	0.276	0.529	0.641	0.78	0.845
E fixed	0.386	0.471	0.268	0.706	0.558	0.277	0.576	0.606	0.8	0.737
F fixed	1.09	1.28	1.87	1.25	1.1	1.01	0.762	0.95	0.886	0.885
G fixed	0.859	0.527	0.82	0.965	1.11	0.924	1.39	1.26	1.32	1.24
H fixed	1.12	0.884	1.24	1.1	0.947	1.64	1.14	1.09	1.01	1.1
I fixed	1.05	1.43	1.27	0.73	0.857	0.809	0.627	0.571	0.807	0.849
K fixed	1.2	1.09	0.728	1.25	1.23	1.59	1.41	1.43	1.29	1.37
L fixed	1	1.23	1.21	0.892	0.997	0.825	0.678	0.784	0.963	0.904
M fixed	1.05	1.36	1.16	1.11	1.13	0.927	0.681	0.84	0.941	0.934
N fixed	0.602	0.876	0.627	0.959	0.978	0.898	1.22	1.1	0.936	1.03
P fixed	0.544	0.843	0.976	1.15	1.53	1.18	1.36	1.33	1.44	1.26
Q fixed	1.08	0.825	0.573	1.1	0.864	1.09	1.07	0.982	1.02	1.04
R fixed	1.45	1.27	0.987	1.28	1.17	2.56	1.8	1.6	1.44	1.26
S fixed	0.936	0.787	0.661	0.901	0.982	0.779	1.23	1.15	0.863	0.999
T fixed	1.03	1.07	0.665	0.891	1.01	0.895	1.01	1.06	0.765	0.912
V fixed	1.18	1.4	1.19	0.846	0.878	0.733	0.748	0.702	0.828	0.832
W fixed	1.6	1.51	2.69	1.26	1.1	0.723	0.749	0.947	0.845	0.718
pThr fixed	0.344	0.38	0.211	0.367	0.429	0.291	0.492	0.539	0.593	0.738
pTyr fixed	0.725	0.413	0.326	0.454	0.485	0.538	0.594	0.733	0.791	0.812

TXK, construct: aa239-end, human (from UniProt P42681)
relative phosphorylation
Details	at +1	at +2	at +3	at +4	at +5	at -1	at -2	at -3	at -4	at -5
A fixed	1.58	1.14	0.87	0.836	0.784	0.51	1.03	0.998	1.03	1.07
D fixed	2.77	1.02	0.409	0.931	0.726	0.678	2.01	1.85	1.81	1.32
E fixed	2.53	1.15	0.345	0.797	0.692	0.83	1.99	2.25	1.53	1.32
F fixed	0.463	1.14	1.52	1.03	1.26	1	0.539	0.887	0.727	0.858
G fixed	1.28	0.725	0.939	1.18	1.14	0.379	1.35	1.13	1.34	1.27
H fixed	0.614	1.08	1.38	1.07	1.1	0.774	0.798	0.997	0.89	1.04
I fixed	0.981	0.782	0.907	0.835	0.76	3.78	0.515	0.553	0.641	0.782
K fixed	0.175	0.848	0.625	0.986	1.05	0.34	0.693	0.63	0.905	1.04
L fixed	0.444	0.723	1.12	0.881	0.901	2.45	0.627	0.534	0.571	0.722
M fixed	0.788	0.788	1.24	0.968	0.88	1.4	0.602	0.598	0.76	0.723
N fixed	0.539	1.3	1.24	1.05	1.1	0.638	1.24	1.25	1.17	1.06
P fixed	0.254	0.933	0.908	1.63	1.23	0.531	1.74	1.16	1.24	1.25
Q fixed	0.98	1.16	0.937	0.94	1.08	0.514	1.19	1.19	1.19	1.16
R fixed	0.207	1.14	1.01	1.13	1.21	0.27	0.605	0.64	0.858	0.944
S fixed	1.22	1.41	1.07	0.968	0.896	0.575	1.06	0.995	0.895	0.898
T fixed	1.39	1.64	0.808	1.09	1	0.948	0.87	0.928	0.908	0.807
V fixed	1.57	1.01	0.9	0.834	0.783	1.45	0.624	0.571	0.728	0.771
W fixed	0.829	1.06	1.64	0.899	1.3	0.461	0.443	0.77	0.607	0.668
pThr fixed	3.94	2.21	0.407	0.62	0.444	1.85	1.4	1.35	1.14	0.994
pTyr fixed	1.25	1.67	0.517	0.595	0.619	1.72	1.2	1.23	0.945	0.998

TYK2, construct: aa871-end, human (from UniProt P29597)
relative phosphorylation
Details	at +1	at +2	at +3	at +4	at +5	at -1	at -2	at -3	at -4	at -5
A fixed	1.02	0.925	0.773	0.912	0.996	1.11	0.912	0.961	1.1	1.01
D fixed	0.279	0.572	0.536	0.798	0.795	1.27	0.902	0.975	0.881	0.949
E fixed	0.484	0.712	0.473	0.923	0.803	0.995	0.977	0.946	1.27	0.869
F fixed	1.45	1.04	1.17	1.05	1.02	1.24	0.932	1.02	1.18	1.04
G fixed	0.642	0.869	0.853	1.05	1.1	1.1	1.14	1.04	1.24	1.21
H fixed	1.3	0.828	1.07	1.15	1	1.22	1.09	1.04	0.906	0.96
I fixed	1.79	0.873	1.69	0.909	0.957	1.05	1.06	0.9	1.1	0.983
K fixed	0.544	1.29	0.806	1.24	1.1	0.573	0.956	0.959	0.86	0.995
L fixed	1.58	0.927	1.27	0.899	1.02	1.05	1.07	1.01	1.04	1.08
M fixed	1.59	1.02	1.33	1.17	0.983	0.976	0.858	0.983	0.967	0.959
N fixed	0.565	1.22	0.988	0.981	0.979	0.98	1.2	1.2	0.925	1.09
P fixed	0.381	1.04	0.756	0.756	1.22	1.18	0.892	1.17	1.1	1.09
Q fixed	0.973	1.07	0.967	1.15	0.908	0.854	1	0.981	1.02	1.03
R fixed	0.869	1.51	1.19	1.31	1.19	0.64	1.08	0.935	1.01	1.02
S fixed	0.761	1.06	0.951	0.957	1.03	0.98	0.986	0.995	0.743	0.91
T fixed	0.967	1.01	1.02	0.876	1.01	0.922	0.953	0.925	0.73	0.769
V fixed	1.42	0.823	1.16	0.857	0.882	0.949	0.983	0.963	0.786	0.875
W fixed	1.37	1.2	0.996	1.01	1	0.895	1.01	0.999	1.15	1.16
pThr fixed	0.332	0.465	0.257	0.549	0.579	0.969	0.712	0.903	0.863	0.929
pTyr fixed	1.02	0.822	0.517	0.919	0.694	1.51	0.98	1.1	1.22	1.07
